Test results: IntAct's records for PubMed 23333653

Target: T1, cata_human CAT (UniProt P04040)
T1 sequence: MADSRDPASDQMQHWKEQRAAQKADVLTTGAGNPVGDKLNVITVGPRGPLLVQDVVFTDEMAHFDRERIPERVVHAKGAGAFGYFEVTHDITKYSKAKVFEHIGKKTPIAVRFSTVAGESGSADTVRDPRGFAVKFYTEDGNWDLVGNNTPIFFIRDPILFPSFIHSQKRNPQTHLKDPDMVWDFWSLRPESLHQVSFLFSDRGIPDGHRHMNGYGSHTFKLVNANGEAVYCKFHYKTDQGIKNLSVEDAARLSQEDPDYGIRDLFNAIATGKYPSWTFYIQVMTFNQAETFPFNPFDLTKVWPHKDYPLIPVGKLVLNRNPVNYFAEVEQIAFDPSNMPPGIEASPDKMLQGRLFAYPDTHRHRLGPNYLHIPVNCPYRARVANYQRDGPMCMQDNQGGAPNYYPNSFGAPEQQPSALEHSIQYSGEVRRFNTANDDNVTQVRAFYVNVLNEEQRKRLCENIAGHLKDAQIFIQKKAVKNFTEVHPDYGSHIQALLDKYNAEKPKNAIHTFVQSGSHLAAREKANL

Ras-related protein Rab-14 (Homo sapiens) (from UniProt P61106) Q70N
effect of a mutation on the interaction: increasing interaction
